From patent publication US20150017120A1 (MIT, published 2015)
Changes are numbered by the printed parent chain. In names and notes the source's numbering stands.

T1: soluble murine CD25 (murine, UniProt P01590 22-236, limits assumed)
T1 construct: also called soluble CD25; mouse CD25
T1 sequence (looked up): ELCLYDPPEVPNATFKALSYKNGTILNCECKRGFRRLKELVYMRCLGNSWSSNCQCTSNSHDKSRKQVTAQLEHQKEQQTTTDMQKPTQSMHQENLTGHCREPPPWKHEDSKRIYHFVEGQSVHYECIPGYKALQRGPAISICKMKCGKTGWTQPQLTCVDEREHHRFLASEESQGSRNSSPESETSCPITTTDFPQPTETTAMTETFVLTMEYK

B1: D265AFc/IL-2 (Fc fusion)
chain 1: EPRVPITQNPCPPLKECPPCAAPDLLGGPSVFIFPPKIKDVLMISLSPMVTCVVVAVSEDDPDVQISWFVNNVEVHTAQTQTHREDYNSTLRVVSALPIQHQDWMSGKEFKCKVNNRALPSPIEKTISKPRGPVRAPQVYVLPPPAEEMTKKEFSLTCMITGFLPAEIAVDWTSNGRTEQNYKNTATVLDSDGSYFMYSKLRVQKSTWERGSLFACSVVHEGLHNHLTTKTISRSLGKGGGSAPTSSSTSSSTAEAQQQQQQQQQQQQHLEQLLMDLQELLSRMENYRNLKLPRMLTFKFYLPKQATELKDLQCLEDELGPLRHVLDLTQSKSFQLEDAENFISNIRVTVVKLKGSDNTFECQFDDESATVVDFLRRWIAFCQSIISTSPQHHHHHH
chain 2: EPRVPITQNPCPPLKECPPCAAPDLLGGPSVFIFPPKIKDVLMISLSPMVTCVVVAVSEDDPDVQISWFVNNVEVHTAQTQTHREDYNSTLRVVSALPIQHQDWMSGKEFKCKVNNRALPSPIEKTISKPRGPVRAPQVYVLPPPAEEMTKKEFSLTCMITGFLPAEIAVDWTSNGRTEQNYKNTATVLDSDGSYFMYSKLRVQKSTWERGSLFACSVVHEGLHNHLTTKTISRSLGKGGGSDYKDDDDK
notes: also called D265A Fc/wt mIL-2
B2: mIL-2 QQ 6.2-8 (ligand)
chain: APTSSSTSSSTAEAQQQQQQQQHLEQLLMDLQELLSRMEDHRNLRLPRMLTFKFYLPKQATELEDLQCLEDELEPLRQVLDLTQSKSFQLEDAENFISNIRVTVVKLKGSDNTFECQFDDEPATVVDFLRRWIAFCQSIISTSPR
notes: Reversion mutant
B3: mIL-2 QQ 6.2-11 (ligand)
chain: APTSSSTSSSTAEAQQQQQQQQQHLEQLLMDLQELLSRMEDSRNLRLPRMLTFKFYLPEQATELKDLQCLEDELEPLRQVLDLTQSKSFQLEDAENFISNIRVTVVKLKGSDNTFECQFDDEPATVVDFLRRWIAFCQSIISTSPQ
notes: Reversion mutant
B4: E76A IL-2 (ligand)
chain: APTSSSTSSSTAEAQQQQQQQQQQQQHLEQLLMDLQELLSRMENYRNLKLPRMLTFKFYLPKQATELKDLQCLEDALGPLRHVLDLTQSKSFQLEDAENFISNIRVTVVKLKGSDNTFECQFDDESATVVDFLRRWIAFCQSIISTSPQ
notes: also called E76 mutants
B5: mIL-2 QQ 6.2-10 (ligand)
chain: B4 chain with N44D, Y45H, K49R, K62E, K68E, A76E, G78E, H82Q, S126P
notes: Reversion mutant
B6: E76G IL-2 (ligand)
chain: B4 chain with A76G
notes: also called E76 mutants
B7: mIL-2 QQ 6.2-4 (ligand)
chain: B4 chain with N44D, Y45S, K49R, K68E, A76E, G78E, H82Q, S126P, D131G
B8: mIL-2 QQ 6.2-13 (ligand)
chain: B4 chain with N44D, Y45H, K49R, K62E, A76E, G78E, H82Q, S126P
notes: Reversion mutant
B9: E76R mouse IL-2 (ligand)
chain: B4 chain with A76R
notes: also called E76 mutants
B10: E76F mouse IL-2 (ligand)
chain: B4 chain with A76F
notes: also called E76 mutants

What was measured:
soluble murine CD25 [1] = target: T1, soluble murine CD25; experiment: method not stated (legend of the schematic of Fc/IL-2)
soluble murine CD25 [2] = target: T1, soluble murine CD25; experiment: yeast surface display, titration with soluble murine CD25
soluble murine CD25 [3] = target: T1, soluble murine CD25; experiment: yeast surface display, labeling with soluble CD25, flow cytometry
Source text: While all H82 and Q121 mutants retained CD25 binding, no CD25 binding was detected for E76 mutants (FIG. 4).

Row | Binder | binding result (soluble murine CD25 [2]) | binding result (soluble murine CD25 [3]) | also measured
1 | B1 | – | – | Kd (soluble murine CD25 [1]): ~50 nM
2 | B2 | binds | – | –
3 | B3 | binds | – | –
4 | B4 | – | no binding (tested: 50 nM soluble CD25) | –
5 | B5 | binds | – | –
6 | B6 | – | no binding (tested: 50 nM soluble CD25) | –
7 | B7 | binds | – | –
8 | B8 | binds | – | –
9 | B9 | – | no binding (tested: 5 or 50 nM soluble CD25) | –
10 | B10 | – | no binding (tested: 5 or 50 nM soluble CD25) | –
